Data taken from patent US6001823A, “Treatment or prophylaxis of diseases caused by pilus-forming bacteria” (priority 1995, dated 1999).

Assays:
PapD [1] = target: T1, PapD (Escherichia coli, UniProt P15319); experiment: ELISA: peptide inhibition of PapD binding to MBP-G1'-140' fusion protein; set-up: species or system E. coli; conditions: PapD preincubated with peptide at 1:25 ratio
T1 sequence (P15319 22-239): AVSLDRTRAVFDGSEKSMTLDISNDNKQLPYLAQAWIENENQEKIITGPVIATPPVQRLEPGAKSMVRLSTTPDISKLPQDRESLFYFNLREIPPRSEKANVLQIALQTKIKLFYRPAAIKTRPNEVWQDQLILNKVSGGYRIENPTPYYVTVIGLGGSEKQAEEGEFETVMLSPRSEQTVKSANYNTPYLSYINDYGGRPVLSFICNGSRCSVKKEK
Procedure: The ability of the peptides to inhibit the binding of PapD to the MBP-G1'-140' fusion protein was then investigated using the following ELISA test:
Stock solutions of MBP-G1'-140' proteins in PBS were diluted to 0.1 μM with PBS. The wells of microtiter plates were coated with 50 μl of the protein solutions overnight at 4° C. The wells were washed with PBS, and blocked with 200 μl of 3% bovine serum albumin (BSA) in PBS for 2 hours at 25° C. The plates were washed vigorously three times with PBS and incubated with 50 μl of 1-5 μM PapD proteins in 3% BSA-PBS for 45 minutes at 25° C. The PapD was preincubated with each of the peptides at a 1:25 ratio for 30 min before being added to the wells. After three washings with PBS, the wells were incubated with a 1:500 dilution of rabbit anti-PapD antiserum in 3% BSA-PBS for 45 minutes at 25° C. After three washings with PBS, the wells were incubated with a 1:1000 dilution of goat antiserum to rabbit IgG coupled to alkaline phosphatase in 3% BSA-PBS for 45 minutes at 25° C. After three washings with PBS and three washings with developing buffer (10 mM diethanolamine, 0.5 mM MgCl2), 50 μl filtered 1 mg/ml p-nitrophenyl phosphate in developing buffer was added, the reaction was incubated for 1 hour or longer if necessary in the dark at 25° C., and the absorbance at 405 nm was read.

PapD [2] = target: T1, PapD; experiment: Soluble inhibition ELISA: peptide inhibition of PapD binding to G1'-19'WT-coated wells; set-up: made in house; species or system E. coli; conditions: peptide in solution
Procedure: In addition, the ability of water-soluble peptides to inhibit PapD binding to G1'-19'WT-coated wells in a soluble inhibition ELISA were tested, since peptide conformations may have been affected by binding to the plastic microtiter plates:
Microtiter wells were coated overnight at 4° C. with 50 μl of 2,5 pmol/50 μl of the G1'-19'WT peptide. The wells were washed with PBS and blocked with 3% bovine serum albumin (BSA). A 25-fold molar excess of each test peptide was pre-incubated with 100 pmoles PapD for 30 min. and the PapD-peptide solution was then added to the coated wells and incubated at 25° C. for 45 min in the presence of 3% BSA/PBS. The subsequent primary antibody, secondary antibody and developing steps are described above. The ability of the peptides to inhibit binding of PapD to the G1'-19'WT peptide was calculated by dividing the amount of PapD binding in the presence of peptide with the amount of PapD binding in the presence of water. 0% inhibition includes values where binding was greater than that of PapD pre-incubated with H2 O.
The % inhibition represents the percentage of PapD binding in the presence of the peptide compared to in the presence of water and are the average of two experiments performed duplicate: […]

NH2--KPGELSGSMTMVLSFP--COOH (H-KPGELSGSMTMVLSFP-OH) [G1'-16'WT]
inhibition of binding of PapD to MBP-G1'-140' fusion protein (PapD [1]): significantly more potent | inhibition of PapD binding to immobilized G1'-19'WT by soluble peptide (PapD [2]): inhibited binding
